Five substances from article PMC5339904 can be followed below.

The target of test [1] is GCN4 leucine zipper fused to the β-lactamase fragments N-BLa and C-BLa. Nature of the test: split reporter (BiFC, NanoBiT); split β-lactamase; soluble N-BLa and C-BLa fusions co-expressed in the E. coli periplasm; read-out: ampicillin LD50 in liquid media by optical density.
For a further test, the target named is GpA0 G83I. Nature of the test: BLaTM 1.2 (split β-lactamase complementation, ampicillin resistance). The following applies: E. coli JM83, 133 μM arabinose, n = 3, read off a plot.
Test [2] has as its target glycophorin A transmembrane domain G83I mutant, frame GpA+1, in BLaTM hybrid proteins. Briefly: split reporter (BiFC, NanoBiT); BLaTM 1.2 (ompA signal) in E. coli JM83; 133 μM arabinose plus 0.3 mM IPTG; ampicillin LD50 given relative to wild-type GpA+1 (=100%); library pairs first selected on ampicillin, then measured one by one; labels are N-BLa/C-BLa.
For test [3] the target is unchanged. Briefly: BLaTM 1.2 (split β-lactamase complementation, ampicillin resistance). The following applies: E. coli JM83, 133 μM arabinose, n = 3, read off a plot.
Test [4] shares this target. Nature of the test: BLaTM 1.1 (split β-lactamase complementation, ampicillin resistance). The following applies: E. coli BL21; n = 4 separate transformations; parent: est. 160 µg/ml; read off a plot.
Test [5] addresses quiescin sulfhydryl oxidase 2 transmembrane domain S8A mutant, in BLaTM hybrid proteins. The test is described as above. The following applies: E. coli BL21; n = 4 separate transformations; parent: est. 80 µg/ml; read off a plot.

Sequence of GCN4 leucine zipper fused to the β-lactamase fragments N-BLa and C-BLa (P03069 whole entry, the tested form may be a part): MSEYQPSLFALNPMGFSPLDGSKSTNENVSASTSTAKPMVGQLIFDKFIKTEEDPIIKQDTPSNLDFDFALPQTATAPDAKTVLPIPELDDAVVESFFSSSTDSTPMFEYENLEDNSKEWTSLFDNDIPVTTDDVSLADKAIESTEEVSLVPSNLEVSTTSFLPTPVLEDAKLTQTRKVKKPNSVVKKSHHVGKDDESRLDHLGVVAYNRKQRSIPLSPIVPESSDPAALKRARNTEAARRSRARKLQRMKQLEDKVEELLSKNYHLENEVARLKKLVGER

“GCN4 leucine zipper fused to the β-lactamase fragments N-BLa and C-BLa”: the fold rise of the ampicillin LD50 on co-expression of both fragments in test [1] amounted to 40 fold.
On to GpA0 wt G83I, for which the other: LD50 c(Amp) in the test with GpA0 G83I (0.1 mM IPTG, parent: est. 230 µg/ml) stood at 150 µg/mL; with GpA0 G83I (0.2 mM IPTG, parent: est. 99 µg/ml), 73 µg/mL; with GpA0 G83I (0.3 mM IPTG, parent: est. 80 µg/ml), 52 µg/mL; with GpA0 G83I (0.4 mM IPTG, parent: est. 61 µg/ml) it was 38 µg/mL; with GpA0 G83I (0.7 mM IPTG, parent: est. 30 µg/ml), 24 µg/mL.
For “glycophorin A transmembrane domain G83I mutant, frame GpA+1, in BLaTM hybrid proteins (domain or fragment)”, the LD50 in % of GpA+1 wt (% (GpA+1 wt = 100%)) in test [2] is 29.
Consider “glycophorin A transmembrane domain, wild type, frame GpA+1, in BLaTM hybrid proteins G83I”, for which the other: LD50 c(Amp) amounted to 120 µg/mL in test [3] (0.1 mM IPTG); 70 µg/mL in test [3] (0.2 mM IPTG); 65 µg/mL in test [3] (0.3 mM IPTG, parent: est. 270 µg/ml); 43 µg/mL in test [3] (0.4 mM IPTG, parent: est. 140 µg/ml); 32 µg/mL in test [3] (0.5 mM IPTG, parent: est. 100 µg/ml); 27 µg/mL in test [3] (0.7 mM IPTG, parent: est. 62 µg/ml). The other: LD50 c(Amp) in test [4] was determined as 16 µg/mL.
Turning to “quiescin sulfhydryl oxidase 2 transmembrane domain, wild type, in BLaTM hybrid proteins S8A”, in test [5], the other: LD50 c(Amp) stood at 38 µg/mL.
